Measurements as given in US20200157212A1 (Pfizer, published 2020).

Columns and labels:
[1] = target: T1, Human ROBO2 KSR mutant overexpressed on HEK293 cells (human, UniProt Q9HCK4 22-1378); assay: mutagenesis study
T1 construct: R100K and K102R already in the entry
T1 sequence: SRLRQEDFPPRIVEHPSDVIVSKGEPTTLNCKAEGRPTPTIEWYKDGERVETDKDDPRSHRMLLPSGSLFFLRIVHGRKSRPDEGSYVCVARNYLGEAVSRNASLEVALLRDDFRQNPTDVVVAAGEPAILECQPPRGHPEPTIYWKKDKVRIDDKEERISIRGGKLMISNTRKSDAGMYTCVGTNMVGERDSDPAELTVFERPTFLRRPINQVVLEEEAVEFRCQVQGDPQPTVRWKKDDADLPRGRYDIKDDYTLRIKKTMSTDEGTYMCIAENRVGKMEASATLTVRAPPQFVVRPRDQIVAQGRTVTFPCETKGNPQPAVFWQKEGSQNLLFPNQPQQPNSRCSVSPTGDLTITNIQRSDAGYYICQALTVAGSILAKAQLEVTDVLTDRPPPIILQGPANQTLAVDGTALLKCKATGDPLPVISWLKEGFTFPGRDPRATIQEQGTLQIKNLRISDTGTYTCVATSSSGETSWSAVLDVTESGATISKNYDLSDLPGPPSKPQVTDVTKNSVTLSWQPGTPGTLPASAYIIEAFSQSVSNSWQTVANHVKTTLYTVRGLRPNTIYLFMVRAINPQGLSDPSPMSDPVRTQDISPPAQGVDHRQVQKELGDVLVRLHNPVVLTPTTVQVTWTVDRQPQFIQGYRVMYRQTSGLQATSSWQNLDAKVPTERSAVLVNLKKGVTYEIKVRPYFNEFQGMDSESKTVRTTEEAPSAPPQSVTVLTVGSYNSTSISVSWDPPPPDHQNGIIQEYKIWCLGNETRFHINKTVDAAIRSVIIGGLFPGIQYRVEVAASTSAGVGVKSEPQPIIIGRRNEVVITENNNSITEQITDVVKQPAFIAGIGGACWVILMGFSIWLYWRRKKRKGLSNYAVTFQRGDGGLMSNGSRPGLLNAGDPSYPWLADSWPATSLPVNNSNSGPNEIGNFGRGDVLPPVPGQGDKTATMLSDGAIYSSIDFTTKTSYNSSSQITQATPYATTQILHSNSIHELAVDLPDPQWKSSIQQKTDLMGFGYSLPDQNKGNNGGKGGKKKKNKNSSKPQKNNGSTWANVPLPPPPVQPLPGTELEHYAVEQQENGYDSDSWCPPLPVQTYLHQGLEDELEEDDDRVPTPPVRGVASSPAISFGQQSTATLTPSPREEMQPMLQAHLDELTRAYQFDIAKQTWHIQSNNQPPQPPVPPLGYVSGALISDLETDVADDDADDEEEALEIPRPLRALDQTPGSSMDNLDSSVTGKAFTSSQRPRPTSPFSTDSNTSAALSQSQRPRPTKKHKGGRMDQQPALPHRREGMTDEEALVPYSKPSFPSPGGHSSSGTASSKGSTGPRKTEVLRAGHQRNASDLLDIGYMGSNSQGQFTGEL

Human ROBO2 Ig1-Ig2-His = target: T2, Human ROBO2 Ig1-Ig2-His (human, UniProt Q9HCK4 31-220); assay: SPR (Biacore T200), Abcs35 immobilized on a CM5 chip, ROBO2 Ig1-Ig2-His as analyte; column head kdis(1/s)
T2 construct: the His tag is named only in the SPR paragraphs; the Octet and ELISA paragraphs print 'ROBO2 Ig1-Ig2' without a tag; also called ROBO2 Ig1-2; Human ROBO2 Ig 1,2
T2 sequence: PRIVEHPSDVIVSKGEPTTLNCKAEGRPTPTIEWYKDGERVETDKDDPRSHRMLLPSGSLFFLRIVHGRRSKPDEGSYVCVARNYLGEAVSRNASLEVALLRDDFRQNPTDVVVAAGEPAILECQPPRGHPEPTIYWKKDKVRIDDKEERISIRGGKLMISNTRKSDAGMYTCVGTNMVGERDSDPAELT
Description: […] Association and dissociation were followed over time.
Based upon several criteria, Abcs25 and Abcs35 were selected for further characterization. Using flow cytometry, improvement in the binding EC₅₀ to human ROBO2 relative to the parental 93H2 was evaluated. Starting at 6.7 nM, 11-point, 3-fold dilution series were made for each antibody and used to stain HEK293 overexpressing human ROBO2 as described above for the ROBO2 fold selectivity (Example 2). […] In addition to measuring improved binding to human ROBO2, it was important to ensure that high affinity binding to both cynomolgus monkey ROBO2 and rat ROBO2 was maintained. Using HEK293 cells overexpressing either cynomolgus monkey ROBO2 or rat ROBO2, the relative dose-dependent binding of 93H2, Abcs25 and Abcs35 was evaluated as described above. High affinity binding to both cynomolgus monkey and rat ROBO2 was maintained in Abcs25 and Abcs35 (Table 4). […] Briefly, Abcs35 was immobilized to 300 resonance units (RU) on a CM5 chip. Association of ROBO2 Ig1-Ig2-His (ROBO2) was measured over 5 minutes and dissociation was followed for a period of 10 minutes.

[2] = target: T1, Human ROBO2 KSR mutant overexpressed on …; assay: flow cytometry on HEK293 cells overexpressing the ROBO2-KSR mutant
Description: Binding of the antibodies was detected using a secondary fluorochrome conjugated anti-human IgG F(ab′)₂ antibody and samples were analyzed on a Fortessa cytometer (BD Biosciences). The fold ROBO2 selectivity was calculated as the geometric mean fluorescence intensity (Geo MFI) with ROBO2 cells/Geo MFI with ROBO1 cells. A fold change higher than 3 was considered to be ROBO2 specific (Table 2, Fold Selectivity). Some affinity matured clones had increased ROBO1 reactivity, for example Abcs 55, CTI-R2-10 and CTIR2-13.
Based upon several criteria, Abcs25 and Abcs35 were selected for further characterization. Using flow cytometry, improvement in the binding EC₅₀ to human ROBO2 relative to the parental 93H2 was evaluated. […] Using HEK293 cells overexpressing either cynomolgus monkey ROBO2 or rat ROBO2, the relative dose-dependent binding of 93H2, Abcs25 and Abcs35 was evaluated as described above. […] Association of ROBO2 Ig1-Ig2-His (ROBO2) was measured over 5 minutes and dissociation was followed for a period of 10 minutes.
RSK specificity for Abcs35, along with 93H2 and Abcs25, also was confirmed in a cell-based binding assay using flow cytometry. […] As described above in Example 3, dose-dependent binding was evaluated.

B1: 93H2 (antibody, human IgG1, kappa, V domains shown)
VH: EVQLVQSGAEVKKPGASVKVSCKASGYTFTGYYMHWVRQAPGQGLEWMGWINPNSGATNFPQKFQGRVTMTRDTSITTAYMDLSRLRSDDTAVYYCARESGDDAFDIWGQGTMVTVSS
VL: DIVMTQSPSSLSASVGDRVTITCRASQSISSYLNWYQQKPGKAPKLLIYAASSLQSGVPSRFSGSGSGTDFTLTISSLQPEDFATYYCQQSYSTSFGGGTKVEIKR
notes: also called parental 93H2; 93H2 mAb
B1: no binding [1].

B2: Abcs35 (antibody, human IgG1, kappa)
heavy: EVQLVQSGAEVKKPGASVKVSCKASGYTFTGYYMHWVRQAPGQGLEWMGWINPKNGDTEFPQKFQGRVTMTRDTSITTAYMDLSRLRSDDTAVYYCARESGDDAFDIWGQGTMVTVSSASTKGPSVFPLAPSSKSTSGGTAALGCLVKDYFPEPVTVSWNSGALTSGVHTFPAVLQSSGLYSLSSVVTVPSSSLGTQTYICNVNHKPSNTKVDKKVEPKSCDKTHTCPPCPAPEAAGAPSVFLFPPKPKDTLMISRTPEVTCVVVDVSHEDPEVKFNWYVDGVEVHNAKTKPREEQYNSTYRVVSVLTVLHQDWLNGKEYKCKVSNKALPAPIEKTISKAKGQPREPQVYTLPPSREEMTKNQVSLTCLVKGFYPSDIAVEWESNGQPENNYKTTPPVLDSDGSFFLYSKLTVDKSRWQQGNVFSCSVMHEALHNHYTQKSLSLSPGK
light: DIVMTQSPSSLSASVGDRVTITCRASQSISSYLNWYQQKPGKAPKLLIYAASSLQSGVPSRFSGSGSGTDFTLTISSLQPEDFATYYCQQSVGLFFGGGTKVEIKRTVAAPSVFIFPPSDEQLKSGTASVVCLLNNFYPREAKVQWKVDNALQSGNSQESVTEQDSKDSTYSLSSTLTLSKADYEKHKVYACEVTHQGLSSPVTKSFNRGEC
notes: fully human IgG1; VH of Ab96 with VL of Ab123
For B2, the koff (Human ROBO2 Ig1-Ig2-His) was 0.00793 s⁻¹ and the binding result [2] was “no binding”.
